Laboratory results from patent US20210246166A1 (Bayer, published 2021).
Bridge positions count the residues as written; N and C are the ends. Square brackets hold non-standard residues; d marks the D form. Ends that are not written are not given here. Pro(3S,4R-methano) = O=C(O)[C@H]1NC[C@@H]2C[C@@H]21; Phe(3-COOH) = N[C@@H](Cc1cccc(C(=O)O)c1)C(=O)O; Oic = O=C(O)[C@@H]1C[C@@H]2CCCC[C@@H]2N1; tBuAla = CC(C)(C)C[C@H](N)C(=O)O; Pen = CC(C)(S)[C@H](N)C(=O)O; NMeC = CN[C@@H](CS)C(=O)O; PEG3 = NCCOCCOCCOCCC(=O)O; Nva = CCC[C@H](N)C(=O)O; Abu = CC[C@H](N)C(=O)O; PEG2 = NCCOCCOCCC(=O)O; Sar = CNCC(=O)O

T1: recombinant human MASP1 active protease (amino acids 297-699, C-terminal His Tag) (human, UniProt P48740 297-699)
T1 sequence: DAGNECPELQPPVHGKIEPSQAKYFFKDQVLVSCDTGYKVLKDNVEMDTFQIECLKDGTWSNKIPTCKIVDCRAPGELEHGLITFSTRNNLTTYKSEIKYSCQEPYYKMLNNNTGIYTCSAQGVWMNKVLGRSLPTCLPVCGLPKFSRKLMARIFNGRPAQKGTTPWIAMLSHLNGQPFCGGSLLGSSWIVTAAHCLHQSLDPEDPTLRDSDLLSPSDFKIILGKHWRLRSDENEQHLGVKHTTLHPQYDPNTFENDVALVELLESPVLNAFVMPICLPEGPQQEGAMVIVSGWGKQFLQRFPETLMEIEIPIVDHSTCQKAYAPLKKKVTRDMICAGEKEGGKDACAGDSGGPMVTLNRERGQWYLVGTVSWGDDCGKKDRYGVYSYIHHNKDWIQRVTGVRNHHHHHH

B1: ((N-Me)G)-IC+SRSLP-(Oic)-I-(Pen)+IPD-(PEG2(13 atoms))-NH2 (peptide)
peptide: [Sar]ICSRSLP[Oic]I[Pen]IPD[PEG3]-NH2
modifications: disulfide 3-11; N-terminus assumed
SMILES: CC[C@H](C)[C@H](NC(=O)CNC)C(=O)N[C@H]1CSSC(C)(C)[C@@H](C(=O)N[C@H](C(=O)N2CCC[C@H]2C(=O)N[C@@H](CC(=O)O)C(=O)NCCOCCOCCOCCC(N)=O)[C@@H](C)CC)NC(=O)[C@H]([C@@H](C)CC)NC(=O)[C@@H]2C[C@@H]3CCCC[C@@H]3N2C(=O)[C@@H]2CCCN2C(=O)[C@H](CC(C)C)NC(=O)[C@H](CO)NC(=O)[C@H](CCCNC(=N)N)NC(=O)[C@H](CO)NC1=O
B2: ((N-Me)G)-IC+SRSL-((1S,2S,5R)-3-azabicyclo[3.1.0]hexane-2-carboxylic acid)-PI-(Pen)+IP-NH2 (peptide)
peptide: [Sar]ICSRSL[Pro(3S,4R-methano)]PI[Pen]IP-NH2
modifications: disulfide 3-11; N-terminus assumed
SMILES: CC[C@H](C)[C@H](NC(=O)CNC)C(=O)N[C@H]1CSSC(C)(C)[C@@H](C(=O)N[C@H](C(=O)N2CCC[C@H]2C(N)=O)[C@@H](C)CC)NC(=O)[C@H]([C@@H](C)CC)NC(=O)[C@@H]2CCCN2C(=O)[C@@H]2[C@H]3C[C@H]3CN2C(=O)[C@H](CC(C)C)NC(=O)[C@H](CO)NC(=O)[C@H](CCCNC(=N)N)NC(=O)[C@H](CO)NC1=O
B3: LIC+SRS-((tBu)A)-PPI-((N-Me)C)+I-NH2 (peptide)
peptide: LICSRS[tBuAla]PPI[NMeC]I-NH2
modifications: disulfide 3-11; N-terminus assumed
SMILES: CC[C@H](C)[C@H](NC(=O)[C@@H]1CSSC[C@H](NC(=O)[C@@H](NC(=O)[C@@H](N)CC(C)C)[C@@H](C)CC)C(=O)N[C@@H](CO)C(=O)N[C@@H](CCCNC(=N)N)C(=O)N[C@@H](CO)C(=O)N[C@@H](CC(C)(C)C)C(=O)N2CCC[C@H]2C(=O)N2CCC[C@H]2C(=O)N[C@@H]([C@@H](C)CC)C(=O)N1C)C(N)=O
B4: (Abu)-IC+SRS-((tBu)A)-PPIC+IPD-NH2 (peptide)
peptide: [Abu]ICSRS[tBuAla]PPICIPD-NH2
modifications: disulfide 3-11; N-terminus assumed
SMILES: CC[C@H](N)C(=O)N[C@H](C(=O)N[C@H]1CSSC[C@@H](C(=O)N[C@H](C(=O)N2CCC[C@H]2C(=O)N[C@@H](CC(=O)O)C(N)=O)[C@@H](C)CC)NC(=O)[C@H]([C@@H](C)CC)NC(=O)[C@@H]2CCCN2C(=O)[C@@H]2CCCN2C(=O)[C@H](CC(C)(C)C)NC(=O)[C@H](CO)NC(=O)[C@H](CCCNC(=N)N)NC(=O)[C@H](CO)NC1=O)[C@@H](C)CC
B5: (Nva)-IC+SRS-((tBu)A)-PPI-(Pen)+IPD-NH2 (peptide)
peptide: [Nva]ICSRS[tBuAla]PPI[Pen]IPD-NH2
modifications: disulfide 3-11; N-terminus assumed
SMILES: CCC[C@H](N)C(=O)N[C@H](C(=O)N[C@H]1CSSC(C)(C)[C@@H](C(=O)N[C@H](C(=O)N2CCC[C@H]2C(=O)N[C@@H](CC(=O)O)C(N)=O)[C@@H](C)CC)NC(=O)[C@H]([C@@H](C)CC)NC(=O)[C@@H]2CCCN2C(=O)[C@@H]2CCCN2C(=O)[C@H](CC(C)(C)C)NC(=O)[C@H](CO)NC(=O)[C@H](CCCNC(=N)N)NC(=O)[C@H](CO)NC1=O)[C@@H](C)CC
B6: AIC+SRSLP-(Oic)-I-(Pen)+I-NH2 (peptide)
peptide: AICSRSLP[Oic]I[Pen]I-NH2
modifications: disulfide 3-11; N-terminus assumed
SMILES: CC[C@H](C)[C@H](NC(=O)[C@H]1NC(=O)[C@H]([C@@H](C)CC)NC(=O)[C@@H]2C[C@@H]3CCCC[C@@H]3N2C(=O)[C@@H]2CCCN2C(=O)[C@H](CC(C)C)NC(=O)[C@H](CO)NC(=O)[C@H](CCCNC(=N)N)NC(=O)[C@H](CO)NC(=O)[C@@H](NC(=O)[C@@H](NC(=O)[C@H](C)N)[C@@H](C)CC)CSSC1(C)C)C(N)=O
B7: ((N-Me)G)-IC+SRS-((tBu)A)-PPI-(Pen)+IP-((3-Carboxy)F)-NH2 (peptide)
peptide: [Sar]ICSRS[tBuAla]PPI[Pen]IP[Phe(3-COOH)]-NH2
modifications: disulfide 3-11; N-terminus assumed
SMILES: CC[C@H](C)[C@H](NC(=O)CNC)C(=O)N[C@H]1CSSC(C)(C)[C@@H](C(=O)N[C@H](C(=O)N2CCC[C@H]2C(=O)N[C@@H](Cc2cccc(C(=O)O)c2)C(N)=O)[C@@H](C)CC)NC(=O)[C@H]([C@@H](C)CC)NC(=O)[C@@H]2CCCN2C(=O)[C@@H]2CCCN2C(=O)[C@H](CC(C)(C)C)NC(=O)[C@H](CO)NC(=O)[C@H](CCCNC(=N)N)NC(=O)[C@H](CO)NC1=O
B8: LIC+SRS-((tBu)A)-PPI-(Pen)+IPD-NH2 (peptide)
peptide: LICSRS[tBuAla]PPI[Pen]IPD-NH2
modifications: disulfide 3-11; N-terminus assumed
SMILES: CC[C@H](C)[C@H](NC(=O)[C@@H](N)CC(C)C)C(=O)N[C@H]1CSSC(C)(C)[C@@H](C(=O)N[C@H](C(=O)N2CCC[C@H]2C(=O)N[C@@H](CC(=O)O)C(N)=O)[C@@H](C)CC)NC(=O)[C@H]([C@@H](C)CC)NC(=O)[C@@H]2CCCN2C(=O)[C@@H]2CCCN2C(=O)[C@H](CC(C)(C)C)NC(=O)[C@H](CO)NC(=O)[C@H](CCCNC(=N)N)NC(=O)[C@H](CO)NC1=O
B9: IIC+SRS-((tBu)A)-PPI-(Pen)+IPD-NH2 (peptide)
peptide: IICSRS[tBuAla]PPI[Pen]IPD-NH2
modifications: disulfide 3-11; N-terminus assumed
SMILES: CC[C@H](C)[C@H](N)C(=O)N[C@H](C(=O)N[C@H]1CSSC(C)(C)[C@@H](C(=O)N[C@H](C(=O)N2CCC[C@H]2C(=O)N[C@@H](CC(=O)O)C(N)=O)[C@@H](C)CC)NC(=O)[C@H]([C@@H](C)CC)NC(=O)[C@@H]2CCCN2C(=O)[C@@H]2CCCN2C(=O)[C@H](CC(C)(C)C)NC(=O)[C@H](CO)NC(=O)[C@H](CCCNC(=N)N)NC(=O)[C@H](CO)NC1=O)[C@@H](C)CC
B10: ((N-Me)G)-IC+SRSLP-(Oic)-I-(Pen)+IPD-(PEG1(10 atoms))-NH2 (peptide)
peptide: [Sar]ICSRSLP[Oic]I[Pen]IPD[PEG2]-NH2
modifications: disulfide 3-11; N-terminus assumed
SMILES: CC[C@H](C)[C@H](NC(=O)CNC)C(=O)N[C@H]1CSSC(C)(C)[C@@H](C(=O)N[C@H](C(=O)N2CCC[C@H]2C(=O)N[C@@H](CC(=O)O)C(=O)NCCOCCOCCC(N)=O)[C@@H](C)CC)NC(=O)[C@H]([C@@H](C)CC)NC(=O)[C@@H]2C[C@@H]3CCCC[C@@H]3N2C(=O)[C@@H]2CCCN2C(=O)[C@H](CC(C)C)NC(=O)[C@H](CO)NC(=O)[C@H](CCCNC(=N)N)NC(=O)[C@H](CO)NC1=O

What follows are binders tested against recombinant human MASP2 active protease (amino acids 297-686, C-terminal His Tag) (human, UniProt O00187 297-686) (assay: cell-based or functional assay).
Sequence of recombinant human MASP2 active protease (amino acids 297-686, C-terminal His Tag) (O00187 other isoform, or with tags, fused parts or gaps limits assumed): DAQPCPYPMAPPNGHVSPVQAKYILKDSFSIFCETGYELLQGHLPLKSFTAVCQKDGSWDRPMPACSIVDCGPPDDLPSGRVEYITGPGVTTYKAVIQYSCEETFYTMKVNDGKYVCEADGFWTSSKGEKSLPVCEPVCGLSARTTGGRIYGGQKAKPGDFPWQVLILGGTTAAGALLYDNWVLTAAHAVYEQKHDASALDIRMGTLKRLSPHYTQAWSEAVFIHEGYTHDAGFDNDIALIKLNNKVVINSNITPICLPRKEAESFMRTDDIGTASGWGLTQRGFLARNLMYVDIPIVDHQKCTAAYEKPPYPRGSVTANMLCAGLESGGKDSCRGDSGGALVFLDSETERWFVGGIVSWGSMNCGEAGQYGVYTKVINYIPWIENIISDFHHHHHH

human MASP2 IC50 [nM] | Binder
96 | B1
20 | B2
98 | B3
120 | B4
51 | B5
98 | B6
42 | B7
70 | B8
72 | B9
43 | [Sar]ICSRSLP[Oic]I[Pen]IP-NH2 (disulfide 3-11; also: HCl salt) [((N-Me)G)-IC+SRSLP-(Oic)-I-(Pen)+IP-NH2 (HCl salt)]
68 | B10

These binders were tested against T1, recombinant human MASP1 active protease … (assay: cell-based or functional assay).

human MASP1 IC50 [nM] | Binder
2.1 | B1
2.1 | B2
2.2 | B3
2.2 | B4
2.2 | B5
2.1 | B6
2 | B7
2.2 | B8
2.1 | B9
2.2 | [Sar]ICSRSLP[Oic]I[Pen]IP-NH2 (disulfide 3-11; also: HCl salt) [((N-Me)G)-IC+SRSLP-(Oic)-I-(Pen)+IP-NH2 (HCl salt)]
0.93 | B10
